The results in this text go back to paper doi:10.1101/291427.

pKd: −log10 of the molar value. A value given as a limit tells only on which side of the number the result lay.

The target of the data set is T1, CSEP0064/BEC1054 (Blumeria graminis) (UniProt N1JJ94).
T1 sequence: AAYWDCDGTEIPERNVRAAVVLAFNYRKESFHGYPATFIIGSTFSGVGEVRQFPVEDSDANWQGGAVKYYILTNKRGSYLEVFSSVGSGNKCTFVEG
The data set can be described thus: NMR.

With SRL DNA oligonucleotide, the negative-log Kd (pKd) (in general, −log10 of the Kd, conventionally taken in molar units) was less than 5.00.
